Assay: yeast display, Sf9 membrane polyspecificity reagent, FACS + sequencing; frameworks hold sequencing errors
In short: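 Genes from sorted yeast were amplified by colony PCR, read by MiSeq 2 × 250 sequencing and filtered on CDR length. These cells carried a synthetic nanobody library in Saccharomyces cerevisiae BJ5465 and were sorted by FACS into low and high (top ~1%) gates on anti-HA and streptavidin fluorescence. Polyreactivity is labelled according to the gate of origin.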

Sequence | polyreactivity (PSR sort gate)
QVQLVESGGGLVQAGGSLRLSCAASGFTFLVNAMGWYRQAPGKERELVAAISSGGSTYYADSVKGRFTISRDNAKNTVYLQMNSLKPEDTAVYYCAAPTDFLFWEFDYWGQCTQVTVSS | low polyreactivity
QVQLVESGGGLVQAGGSLRLSCAASGYIFDGNAMGWYRQAPGKERELVASISSGTSTYYADSVKGRFTISRDNAKNTVYLQMNSLKPEDTAVYYCAGDYKWSGFGYWGQGTQVTVSS | low polyreactivity
QVQLVESGGRLVQAGGSLRLSCAASGISFNYYAMGWYRQAPGKEREMVAGITSGGSTYYADSVKGRFTISRDNAKNTVYLQMNSLKTEDTAVYYCATRVRDGSQTPYRRGHSYDYWGQGTQVTVSS | high polyreactivity
QVQHVESGGRLVQAGGSLRLSCAASGSNWIYAMGWYRQAPGKERELVAAISVSGDRTYYADSVKGRFTISRDNAKNTVYLQMNSLKPEDTAVYYSATPPYPGRDYWGQGTEVTVSS | high polyreactivity
QVQLVESGGGLVQAGGSLRLSCAASGITFNSYAMGWYRQAPGKERELVAAISGSGSSTYYADSVKGRFTISRDNAKNTVYLQMNSLKPEDTAVYYCAATGYSSWTYYTHEYWGQGTQVTVSS | low polyreactivity
QVQLVESGGGLVQAGGILRLSCAASGSILTDNAMGWYRQAPGKERELVAAITSSGNTNYADSVKGRFTISRDNAKNTVFLQMNSLKPEDTAVYYCARDLREWGQGTQVTVSS | low polyreactivity
QVKLVESGRGFVQAGGSLRISCAASGITFRYNAMGWYRQAPGKERELVAAITFSGGSTYYSDSVKGRFTISRDNAKNTVYLQMNILKPEDTAVYYCAKLGSTSTRGNYDYWGQGTQVTVSS | low polyreactivity
QVQLVESGGGLVQAGGSLRLSCAASGRIFGVNAMGWYRQAPGKERELVAVISSGGSTYYADSVKGRFTISRDNAKNTVYLQMNSLKPEDTAVYYCNAVVGRWFPYNLSDYWGQGTQVTVSS | low polyreactivity
QVQLVESGGGLVQAGGSLRLSCAASGSTYYNAMGWYRQAPGKERELVAAIRFRYGSTYYADSVKGRFTISRDNAKNSVYLQMNSLKPEDTAVYYCADDNKRSWRYAYNYWGHGTQVTVSS | high polyreactivity
QVQLVESGGGLVQAGGSLRLSCAASGSTFRWYAMGWYRQAPGKERELVAAITSSGSTYYADSVKGRFTISRDNAKNTVYLQMNSLKPEDTAVYYCAARANGYWNTYEHDYWGQGIQVTVSS | low polyreactivity
QVQLVESGGGLVQAGGSLRLSCAASGFIFRNYAMGWSRQAPGKERELVAAITRSGTSTYYADSVKGRFTISRDNAKNTVYLQMNSLKPEDTAVYYCNAGWGLRLSWLGNYWGQGTQVTVSS | high polyreactivity
QVQLVESGGGLVQAGGSLRISCAASGSICYYYGMGWYRQAPGKERELVAGISSRGGRTYYADSVKGRFTISRDNAKNTVYLQMNSLKPEDTAVYYGAADRYYYAYRYDPSGYWGQGTQVTVSS | low polyreactivity
QVQIVESGGGLVQAGGSLRLSCAASGSTFFRYAMGWYRQAPGKERELVAAISYSGDSTYYADSVKGRFTISRDNAKNTVYLQMNSLKPEDTAVFYCNAVYFRYRYNYWGQGTQVTVSS | high polyreactivity
HVQPQESGGGLVQAGGSLRLSCAASGTISADYKMGWYRQAPGKEREFVAANAFGAFTNYADSVKGRFTISRDIAKNTVYLQMNSLKPEDTAVYYCAADLYYYAYDYWGQGTQVTVSS | high polyreactivity
QVQLVESGGGLVQAGGSLRLSCAASGSTLWRSAMGWYRQAPGKERELVAGISRGGGSTYYADSVKGRFTISRDNAKNTVYLQMHSLKPEDTAVYYCATPVYQVRGAFDYWGQGTQVTVSS | low polyreactivity
QVQLAESGGALVQAGCSLRLSCSASGYTSAKNVMGWYIQAPGKERELVAAISRSGGRTYYADSVKGRFTISRDNAKNSVYLQMNSLKPEDTAVYYCAARSATNHADDYYYWGQGTQVTVSS | high polyreactivity
QVQLVESGGGLVQAGGSLRLSCAASGSTFYIYAMGWYRQATGKERELVARITRGGTTYADSEKGRFTISRDNAKNTVYLQMNSLKPEDTAVYYCNAASKTTRYYQAFYSGGGYWGQGTQVTVSS | high polyreactivity
QVQLVESGGGLVQAGGSLRLSCAASGNTFVGYTMGWYRHAPGKERELVAAISWNGGTTYYADSVKGRFTISRDNAKNTVYLQMNSLKPEDTAVYYCNTRWYTRRFDYWGQGTQVTVSS | high polyreactivity
QVQLVESGGGLVQAGGSLRLSCAASGRTFDLYDMGWYRQAPGKERELVARISYNGGITYYADSVKGRFTISRDNAKNTVYLQMNSLKPEDTAVYYCDGRYRPHFGPLFEYDYWGQGTQVTVSS | low polyreactivity
QVQLVESGGGLVQAGGSLRLICAASGSTFAYYVMGWYRPAPGTEREFVATITGSGGRTYYADSVKGRFTISRDNAKNTVYLQMISLKPEDTAVYYCAAGVYTGQHEYDYWGQGTQVTVSS | low polyreactivity
QVQVVESGGGLVQAGGSLRLSCAASGSTFRYYAMGWYRQAPGKERELVAGISKVGGRTYADSVKGRFTISRDNAKYTVYLQMNSLKTEDTAVYYCAADAVRRTPGYDYWGHGTQVTVSS | high polyreactivity
QVQLVESGGGLVQAGGSLRLSCAASGSIFSTYTMGWYRQAPGKERELVAGISKSGGSTYYADSVKGRFTISRDNAKNTVYLQMNSLKPEDTAVYYCAAPVPKTDKLLRMYYWGQGTQVTVSS | high polyreactivity

Sequence | polyreactivity (PSR sort gate)
QVQLVESGGGLVQAGGILRLSCAASGRIFYVNAMGWYRQAPGKERELVAAITWIDGSTYYADSVKGRFTISRDNAKNTVYLQMNSLKPEDTAVYYCAAGGYFYSFYYWGQGTQVTVSS | low polyreactivity
QVQRVESGGGLVQAGGSLRLSCAASGSIFSSNVMGWYRQAPGKEREIVAAITTGGSTNYADSVKGRFTISRDNAKNTVYLQMYCLKREDTAFYYCSFSYGYYLFVDWGYGCWGQGSQVTVSS | low polyreactivity
QVQLVESGGGLVQAGGSLRLSCASSGSIFYVNTMGWYRQAPGKERELVATISVSGGSTNYADSVKGRFTISRDNAKNTVYFQMNSLKPEDTAVYYCAEAYLRYYDGPYDYWGQGTQVTVSS | low polyreactivity
QVKLQESGGSHVQAGGSLRLSCAASGFIFARNYIGWYRQAPCKERELVAGIGVRASTNYADSDKGRFTISRDNAKNSVYLQMNSLEPEDTAVYYCAVGDTVLGYHYYWGQGTQVTVSN | low polyreactivity
QVQLVESGGGLFQAGRSLPLSCAASGIIFTQYPMGWYRQAPGKERELVAAISGSGGRTYYADSVKGRFSISRDNEKNTVYLQMKILKPEDTAVYYCAARYARYGNDYWGQCTQVTVSS | high polyreactivity
QVQLVESGGGLVQAGGSLRLSCAASGSIFKPYAMGWYRQAPGKERELVAAISSSGGSTYYADSVKGRFTISRDNAKNTVYLQMNSLKPEDTAVYYCNADWYYAGYGYWGQGTQVTVSS | low polyreactivity
QVQLVESGGGLVQAGGSLRLSSADSGSIFVYYAMGWYRQEPGKESELVATIRSSGARTYYADSVKGRFTISRDNAKNTVYLQINSLKPEDTAVYYCNARYVPYWAYGYGYWGQGTQVTVSS | high polyreactivity
QVQLVESGGGLVQAGGSLRLSCAASGSTFASYAMGWYRQAPGKQRELVAAITDSGGSTYYADSVKGRFTISRDNAKNTVYLQMNSLKPEDTAVSYCAAYGRYFSYHDYDYWGQGTQVTVSS | low polyreactivity
QVQLVESGGGLVQAGGSLRLSCAASGSTFYPYAMGGYRQAPGKERELVAAISSGGSTYYADSVKGRFTISRDNAKNTVYLQMNSLKPADTAVYYCAADFYYAYYWGQGTQVTVSS | low polyreactivity
QVQLVESGGGLFQAGGSLRLSCAASGSIFGHYAMGWYRQAPGKERELVAAISYSGGSTYYADSVKGRFTISRDNAKNTVYLHMNSLKPEDTAVYYCNADLYDAGSEMDYWGQGTQVTVSS | high polyreactivity
QVQLVESGGGLVQAGGRLRLSCAASGIVFKRYAKGWYRQAPGKEREFVATISYTGGRTYYADSVKGRFTISRDTAKNTVYLQMNSLKPEDTAVYYCATLYRSSKHQPLDYWGQGTQVTVSS | high polyreactivity
QVQLVESGGGLVQAGGSLRLTCAASGRTFIVYAMGWYRQAPGKERELVARISSGSRTSYADSVTGRFTISRDNAKNTVYLQMNSLKPEDTAVYYFAKSRVIKYEFDYWGQGTQVTLSS | low polyreactivity
QVQVVESGGGLVQAGGSLRLSCAASGSIFHNNAMGWYRQAPGKERELVASITSRGGSTYYADSVKGRFTISRDNAKNTVYLQMNSLKPEDTAVYYCAARPYARVKTHGYWGQGTQVSVSS | low polyreactivity
QVQLVESGGGLVQAGGSLRLSCAASGRIFYRYAMGWSRQAPGKERELVASITTSGDSTYYADSVKGRFTISRDNAKNTVYLQMNSLKPEDTAVYYCAARSYRGRRYDYWGQGTQVTVSS | high polyreactivity
QVQLVESGGGLVQAGGSLRLSCAASGSISGYYVMGWYRQAPGKERELVAAITWRGGSTYYADSVKGRFTISRDNAKNTVYLQMNSLKPEDTAVYYCNKVPGRRSTFEYWGQGTQVTVSS | high polyreactivity
QVQLVESGGGLVQAGGSLRLSCAASGRIFYAYAMGWYRQAPGKERELVATITGIGGSTYADSVKGRFTISRDNAKNTVYLQMNSLKPEDTAVYYCNAAKWLTSGGLDYWGQGTQVTVSS | high polyreactivity
QVQLVESGGGLVQAGGSLRLSCAASGFILYRYAMGWDRQAPGKDRELVAAITRRGGSTYYADSVKGRFTISRDNAKNTVYLQMNSLKPEDTAVYYCNADIGVYGTSDLDYWGQGTQVTLSS | high polyreactivity
QVQLLESGGGLVQAGGSLRLSCAASGNLFHVNAMGWYRQAPGKERELVASISRRGGSTNYADSVKGRFTISRANAKNTVYLQMNSLKPEDTAVYYCATRLTSAVGRYLYDFGYWGQGTQVTVSS | high polyreactivity
QLQLVESGGGLVQAGGSLRLSCAPSGLTFGRYAMGGYRHAPGKERELVAAITARVGRTYYADSVKGRFTISRDNEKNTVYLQMNSLKPEDTAVYYCAAGPSYFWYSHEKYDYWGQGTQVTVSS | high polyreactivity
QVQLVESGGGLVQAGGSLRLSCPASGRIIAWYAMGWYRQAPGKERELVAVITSSGGSTYYADSVKGRFTISRDNAKNTVYFMMNRLKPEDTAVYYCARKVVSPAWSHDFYYWGLGTQVTVSS | low polyreactivity
QVQLVESGGGLVQAGGSLRLSCAASGSIFGLYAMGWYRQAPGKERELVAAINQSGGSTSYADSVKGRFTISRDNAKNTVYLQMNSLKPEDTAVYYCAADSAFYTGSDYGWSDYDYWGQGTQVTVSS | low polyreactivity

From the nanobody polyreactivity screen of Harvey et al. (2022)
